The record followed here is patent US20230085393A1.

For test [1], the target named is ZIKV Brazil strain virus (Asian lineage), E2 antigen on virions (Zika virus).
Test [2] has as its target ZIKV Dakar strain virus (African lineage), E2 antigen on virions (Zika virus).

B1: ZIKV-120765-491 (antibody, V domains shown)
VH: EVQLVESGGGLVQPGGSLRLSCAASGFTFIRYAMSWVRQAPGKGLEWVSDISGSGGSTFYADSVKGRFTISRDNSKNTLYLQMNSLRAEDTAVYYCARDDEGYTTNWYDAYDIWGQGTMVTVSS
VL: DIQMTQSPSSLSASVGDRVTITCRASQSIGSYLNWYQQRPGKAPKLLIYTASSLQSGVPSRFSGSGSGTDFILTISSLQPEDFATYYCQQNYNIPQVTFGPGTKVDIK
As for B1, the IC50, RTCA cellular impedance neutralisation assay on Vero cells in test [1] and in test [2] was under 0.1 µg/mL throughout.

B2: ZIKV-120764-350 (antibody, V domains shown)
VH: DVQLVESGGGLIQPGGSLRLSCAASGFTARTNYMTWVRQAPGKGLEWVSVIYSGGSTIYADSVKGRFTISRDNAKNSLYLQMNSLRAEDTAVYYCARDRGYLDHWGQGTLVTVSS
VL: EIVLTQSPATLSLSPGERATLSCRASQSVTNYFAWYQQRPGQAPRLLIYDVSNRATGIPARFSGSGSGTDFTLTISSLEPEDFAVYYCQQRSNWPYTFGQGTKVEIK
For B2, the IC50, RTCA cellular impedance neutralisation assay on Vero cells in test [1] and in test [2] was under 0.1 µg/mL in each case.
